The source of these data is patent CN114716553A (BEIJING KENUO XINCHENG TECH CO LTD, dated 2022).

Assay [1] concerns the target T1, 人LILRB4的重组蛋白 (phage library screening antigen) (human, UniProt Q8NHJ6 22-259, limits assumed).
T1 construct: May be the same protein as the immunogen or as m14
As to the kind of experiment: solid phase screening of phage library.

For assay [2], the target named is T2, 人LILRB4 (on LILRB4-positive cells) (human, UniProt Q8NHJ6 22-448).
T2 construct: whole, on cells; also called 人LILRB4阳性细胞THP-1细胞; 人LILRB4阳性细胞RPMI-8226细胞
As to the kind of experiment: flow cytometry on RPMI-8226 cells. A general note: In flow cytometry, cells or beads pass a laser one at a time.

The target in assay [3] is T3, 人LILRB4重组蛋白(购于义翘，Cat.16742-H08H) (human, UniProt Q8NHJ6 22-259).
T3 construct: Bought protein; also called human LILRB4 recombinant protein
In words: BLI (Octet QKe), antibody captured on AHC probe, antigen 100 nM, 1:1 Langmuir fit. (Biolayer interferometry detects binding as a change in optical thickness at a sensor tip.)

In assay [4] the target is T2, 人LILRB4 (on LILRB4-positive cells). In words: cell-based or functional assay.
For assay [5] the target is unchanged. As to the kind of experiment: flow cytometry on THP-1 cells.

Changes are numbered by the printed parent chain.

By EC50 is commonly meant the concentration needed to bring the measured effect to its halfway point. A high value points to a less potent agent. As a reminder, the Kd is the equilibrium constant for the complex coming apart. As usually defined, the koff is the rate constant with which the complex falls apart. A low value points to slow dissociation. The kon is a measure of how fast the partners come together.

B1: C3 (VHH)
VHH: QVQLQESGGGLVQAGGSLRLSCVASEYIYTRCNMAWYRQAPGKERELVSAFDIGDTLYYADSVKGRFTISQDNAKNTVYLQMNSLKPEDTAMYYCNTVGVKPGGGSWCFNPDYWGQGTQVTVSS
notes: also called 噬菌体展示的纳米抗体C3
Turning to B1, the binding result in assay [1] was “binds”.

B2: hzD2-1 (Fc fusion)
chain: EVQLVESGGGLVQPGGSLRLSCAASGFTVSSDYMGWFRQAPGKEREGVACINTNGGETYHANSVSGRFTISRDNSKNTLYLQMNSLRAEDTAVYYCARGRTNPDSYGGSRCLLAPEYTYWGQGTLVTVSS
notes: Humanised VHH of D2 fused to human Fc, expressed in HEK293; also called D2人源化分子hzD2-1; hzD2-1人源化抗体; not shown: human Fc (hFc) from the expression vector
With B2, the EC50 in assay [2] is 0.221 nM. In assay [3], this molecule registered a Kd of 1.03 nM, an off-rate constant (koff) of 0.000172 s⁻¹ and a kon of 167000 M⁻¹ s⁻¹.

B3: hzD2-2 (Fc fusion)
chain: B2 chain with F27Y, V29A
notes: Humanised VHH of D2 fused to human Fc, expressed in HEK293; also called D2人源化分子hzD2-2; hzD2-2人源化抗体; not shown: human Fc (hFc) from the expression vector
In the case of B3, in assay [2], a half-maximal response (EC50) required 0.215 nM. Further, in assay [3], the Kd came out at 0.948 nM, the koff was determined as 0.000175 s⁻¹ and the kon is 185000 M⁻¹ s⁻¹.

B4: 对照抗体193 (antibody, IgG1, V domains shown)
VH: EVQLVESGGGLVQPGGSLRLSCAASGFSLSSSYWISWVRQAPGKGLEWIGSIDSGSVGITYYATWVKGRFTISRDNSKNTLYLQMNSLRAEDTAVYYCARHGDNWALDLWGQGTLVTVSS
VL: DIQMTQSPSTLSASVGDRVTITCRASQSINSWLAWYQQKPGKAPKLLIYKASTLASGVPSRFSGSGSGTEFTLTISSLQPDDAATYYCQHGYIRGDLDNVFGGGTKVEIK
notes: Variable regions cloned into vectors with human kappa / IgG1 constant regions and expressed in HEK293; also called 同靶点对照抗体193
In the case of B4, the “EC50 of T cell activation (LILRB4 Effector Reporter cells with APOE/TCR Activator/CHO cells, luciferase)” value in assay [4] was determined as 0.094 nM. For the same molecule, a half-maximal effect in assay [2] (EC50) was put at 0.227 nM. This molecule yielded an EC50 in assay [5] of 1.43 nM. In addition, in assay [3], the Kd came out at 0.721 nM, the koff is 0.00022 s⁻¹ and the kon turned out to be 305000 M⁻¹ s⁻¹.

B5: B2 (VHH)
VHH: QVQLQESGGGPVQAGGSLRLSCAASEYSYRRHCMAWFRQAPGKEREGVATIYTGGGITRYADSVKGRFTISQDNAKNTVYLQMNSLKPEDTAMYYCAADIASRACVTDPFPLERARFSAWGQGTQVTVSS
notes: also called 噬菌体展示的纳米抗体B2
As for B5, the binding result in assay [1] was “binds”.

B6: F1 (VHH)
VHH: B5 VHH with P11L
notes: also called 噬菌体展示的纳米抗体F1
Take B6: the binding result in assay [1] is reported as “binds”.
